Laboratory results taken from paper PMC3472128 (Structure (London, England : 1993), 2012).
Where “and” joins values, the source holds several entries; their conditions need not be identical. Equal entries are not always repeated.

T1: Smad7 PY peptide Ac-ELESPPPPYSRYPMD-NH2 (203-217) (human)
T1 peptide: Ac-ELESPPPPYSRYPMD-NH2


Biological target: T1, Smad7 PY peptide Ac-ELESPPPPYSRYPMD-NH2 …
Test: ITC

| Kd | Binder |
| --- | --- |
| 0.7 ± 0.3 µM | Smurf1 WW1-WW2 pair (domain or fragment) SPELPEGYEQRTTVQGQVYFLHTQTGVSTWHDPRIPRDLNSVNCDELGPLPPGWEVRSTVSGRIYFVDHNNRTTQFTDPRLH |
| 0.7 ± 0.3 µM | Smurf2 WW2-WW3 pair (domain or fragment) PPDLPEGYEQRTTQQGQVYFLHTQTGVSTWHDPRVPRDLSNINCEELGPLPPGWEIRNTATGRVYFVDHNNRTTQFTDPRLSAN |

Biological target: T1, Smad7 PY peptide Ac-ELESPPPPYSRYPMD-NH2 …
Test: ITC
Remark: another data set of the same source

| Kd | Binder |
| --- | --- |
| 5 ± 0.3 µM | Smurf1 WW1-WW2 pair (domain or fragment) SPELPEGYEQRTTVQGQVYFLHTQTGVSTWHDPRIPRDLNSVNCDELGPLPPGWEVRSTVSGRIYFVDHNNRTTQFTDPRLH |
| 5 ± 0.3 µM | Smurf2 WW2-WW3 pair (domain or fragment) PPDLPEGYEQRTTQQGQVYFLHTQTGVSTWHDPRVPRDLSNINCEELGPLPPGWEIRNTATGRVYFVDHNNRTTQFTDPRLSAN |

Biological target: T1, Smad7 PY peptide Ac-ELESPPPPYSRYPMD-NH2 …
Test: ITC
Remark: another data set of the same source

| Kd | fold improvement of affinity against wild-type YAP WW2 | fold reduction of affinity against the wild-type WW1-WW2 pair | fold reduction of affinity against wild-type YAP WW1 | Binder |
| --- | --- | --- | --- | --- |
| 23.5 ± 1.5 µM | – | – | – | Nedd4L WW2 domain Lys378Glu (domain or fragment) not shown |
| – | 2 fold | – | – | SASGPLPDGWEQAMTQQGQIYYINHKNKTTSWLDPRLDPR (domain or fragment, human, UniProt P46937 227-266, looked up) [YAP WW2 domain Asp243 and Glu245 to Glutamine] |
| – | – | 3 fold | – | Smurf1 WW1-WW2 pair Gln247 and Gln249 to Glu (domain or fragment) SPELPEGYEQRTTVEGEVYFLHTQTGVSTWHDPRIPRDLNSVNCDELGPLPPGWEVRSTVSGRIYFVDHNNRTTQFTDPRLH |
| – | – | 3 fold | – | Smurf1 WW1-WW2 pair Gln249Glu (domain or fragment) SPELPEGYEQRTTVQGEVYFLHTQTGVSTWHDPRIPRDLNSVNCDELGPLPPGWEVRSTVSGRIYFVDHNNRTTQFTDPRLH |
| – | – | 10 fold | – | Smurf1 WW1-WW2 pair Arg243Glu (domain or fragment) SPELPEGYEQETTVQGQVYFLHTQTGVSTWHDPRIPRDLNSVNCDELGPLPPGWEVRSTVSGRIYFVDHNNRTTQFTDPRLH |
| – | – | 3 fold | – | Smurf1 WW1-WW2 pair Arg243Ala (domain or fragment) SPELPEGYEQATTVQGQVYFLHTQTGVSTWHDPRIPRDLNSVNCDELGPLPPGWEVRSTVSGRIYFVDHNNRTTQFTDPRLH |
| 48.6 ± 6.4 µM | – | – | – | DELGPLPPGWEVRSTVSGEIYFVDHNNRTTQFTDPRLH (domain or fragment, human, UniProt Q9HCE7-2 277-314, looked up) [Smurf1 WW2 domain Arg295Glu] |
| 34.2 ± 1.6 µM | – | – | – | GPLPPGWEIRNTATGEVYFVDHNNRTTQFTDPRLSAN (domain or fragment, human, UniProt Q9HAU4 297-333, looked up) [Smurf2 WW3 domain R312E] |
| – | – | – | 2 fold | SSFEIPDDVPLPAGWEMAKTSSGERYFLNHIDQTTTWQDPRKAM (domain or fragment, human, UniProt P46937 163-206, looked up) [YAP WW1 domain Q186E] |

The next lines start with the binder.

| Binder | Kd | fold improvement of affinity against wild-type YAP WW2 | fold reduction of affinity against the wild-type WW1-WW2 pair | fold reduction of affinity against wild-type YAP WW1 |
| --- | --- | --- | --- | --- |
| Nedd4L WW2 domain Lys378/Arg380 to Glu (domain or fragment) not shown | 27.3 ± 2.2 µM | – | – | – |
| Nedd4L WW2 domain Arg380Glu (domain or fragment) not shown | 15.4 ± 3.5 µM | – | – | – |

Biological target: the molecule itself
Test: native MS

| Binder | stoichiometry N |
| --- | --- |
| Smurf2 WW2-WW3 pair (domain or fragment) PPDLPEGYEQRTTQQGQVYFLHTQTGVSTWHDPRVPRDLSNINCEELGPLPPGWEIRNTATGRVYFVDHNNRTTQFTDPRLSAN | 2 and 3 |

Biological target: the molecule itself
Test: NMR

| Binder | stoichiometry N |
| --- | --- |
| SPELPEGYEQRTTVQGQVYFLHTQTGVSTWHDPRIPRD (domain or fragment, human, UniProt Q9HCE7-2 233-270, looked up) [Smurf1 WW1 domain (residues 233-270)] | 2 |

Biological target: T1, Smad7 PY peptide Ac-ELESPPPPYSRYPMD-NH2 …
Test: ITC
Remark: another data set of the same source

| stoichiometry N | fold weaker dissociation constant than YAP WW1 | Kd | Binder |
| --- | --- | --- | --- |
| 0.7 | – | 1.7 ± 0.3 µM | Smurf1 WW1-WW2 pair (domain or fragment) SPELPEGYEQRTTVQGQVYFLHTQTGVSTWHDPRIPRDLNSVNCDELGPLPPGWEVRSTVSGRIYFVDHNNRTTQFTDPRLH |
| 1 | – | 9.8 ± 0.9 µM | YAP WW1-WW2 pair (domain or fragment) SSFEIPDDVPLPAGWEMAKTSSGQRYFLNHIDQTTTWQDPRKAMLSQMNVTAPTSPPVQQNMMNSASGPLPDGWEQAMTQDGEIYYINHKNKTTSWLDPRLDPR |
| 1 | – | – | SFLPPGWEMRIAPNGRPFFIDHNTKTTTWEDPRL (domain or fragment) [Nedd4L WW3 domain] |
| 2 equivalents of peptide per protein | – | – | Nedd4L WW2-WW3 pair (domain or fragment) TPGLPSGWEERKDAKGRTYYVNHNNRTTTWTRPIMQLAEDGASGSATNSNNHLIEPQIRRPRSLSSPTVTLSAPLEGAKDSPVRRAVKDTLSNPQSPQPSPYNSPKPQHKVTQSFLPPGWEMRIAPNGRPFFIDHNTKTTTWEDPRL |
| 1 | – | – | Nedd4L WW3-WW4 pair (domain or fragment) SFLPPGWEMRIAPNGRPFFIDHNTKTTTWEDPRLKFPVHMRSKTSLNPNDLGPLPPGWEERIHLDGRTFYIDHNSKITQWEDPRL |
| 1 | – | – | GPLPPGWEERIHLDGRTFYIDHNSKITQWEDPRL (domain or fragment) [Nedd4L WW4 domain] |
| – | – | 1.7 ± 0.3 µM | Smurf2 WW2-WW3 pair (domain or fragment) PPDLPEGYEQRTTQQGQVYFLHTQTGVSTWHDPRVPRDLSNINCEELGPLPPGWEIRNTATGRVYFVDHNNRTTQFTDPRLSAN |

Second part, the binder before the results:

| Binder | stoichiometry N | fold weaker dissociation constant than YAP WW1 | Kd |
| --- | --- | --- | --- |
| Nedd4L WW2 domain (364-403) (domain or fragment) not shown | 1 | – | – |
| SASGPLPDGWEQAMTQDGEIYYINHKNKTTSWLDPRLDPR (domain or fragment, human, UniProt P46937 227-266, looked up) [YAP WW2 domain (residues 227-266)] | – | 9 fold | – |
| Nedd4L WW1-WW2 pair (domain or fragment) not shown | 1 | – | – |
| Nedd4L WW1 domain (domain or fragment) not shown | 1 | – | – |
| DELGPLPPGWEVRSTVSGRIYFVDHNNRTTQFTDPRLH (domain or fragment, human, UniProt Q9HCE7-2 277-314, looked up) [Smurf1 WW2 domain (residues 277-314)] | 1 | – | 4.1 ± 0.6 µM |
| Smurf2 WW3 domain (297-333) (domain or fragment) not shown | 1 | – | 4.1 µM |
| SSFEIPDDVPLPAGWEMAKTSSGQRYFLNHIDQTTTWQDPRKAM (domain or fragment, human, UniProt P46937 163-206, looked up) [YAP WW1 domain (residues 163-206)] | – | – | 6.9 ± 0.28 µM |
